# Laboratory results published in patent publication US20180016354A1 (Merck KGaA, published 2018).
# Where a chain is given by its changes, count along the chain named.
# B1: Domain-exchanged one-armed anti-EGFR antibody (CH3-KiH domain-exchanged hu425 Fab on SEED AG heavy chain, with huFc_GA SEED) (antibody)
# heavy: QVQLVQSGAEVKKPGASVKVSCKASGYTFTSHWMHWVRQAPGQGLEWIGEFNPSNGRTNYNEKFKSKATMTVDTSTNTAYMELSSLRSEDTAVYYCASRDYDYDGRYFDYWGQGTLVTVSSASTKGEPQVYTLPPSRDELTKNQVSLYCLVKGFYPSDIAVEWESNGQPENNYKTTPPVLDSDGSFFLYSKLTVDKSRWQQGNVFSCSVMHEALHNHYTQKSLSLSKSCDKTHTCPPCPAPELLGGPSVFLFPPKPKDTLMISRTPEVTCVVVDVSHEDPEVKFNWYVDGVEVHNAKTKPREEQYNSTYRVVSVLTVLHQDWLNGKEYKCKVSNKALPAPIEKTISKAKGQPFRPEVHLLPPSREEMTKNQVSLTCLARGFYPKDIAVEWESNGQPENNYKTTPSRQEPSQGTTTFAVTSKLTVDKSRWQQGNVFSCSVMHEALHNHYTQKTISLSPGK
# chain: EPKSSDKTHTCPPCPAPELLGGPSVFLFPPKPKDTLMISRTPEVTCVVVDVSHEDPEVKFNWYVDGVEVHNAKTKPREEQYNSTYRVVSVLTVLHQDWLNGKEYKCKVSNKALPAPIEKTISKAKGQPREPQVYTLPPPSEELALNELVTLTCLVKGFYPSDIAVEWLQGSQELPREKYLTWAPVLDSDGSFFLYSILRVAAEDWKKGDTFSCSVMHEALHNHYTQKSLDRSPGK
# light: DIQMTQSPSSLSASVGDRVTITCSASSSVTYMYWYQQKPGKAPKLLIYDTSNLASGVPSRFSGSGSGTDYTFTISSLQPEDIATYYCQQWSSHIFTFGQGTKVEIKRTVAEPQVYTLPPSRDELTKNQVSLTCLVKGFYPSDIAVEWESNGQPENNYKTTPPVLDSDGSFFLTSKLTVDKSRWQQGNVFSCSVMHEALHNHYTQKSLSLSGEC
# notes: One Fab arm only (monovalent); also called One-armed CH3 domain-exchanged anti-EGFR antibody; one-armed domain-exchanged anti-EGFR antibody
# B2: one-armed anti-EGFR SEED antibody with Charge pair CH3 domain-exchanged Fab, Variant 1 (antibody)
# heavy: B1 heavy with D138K, L140M, Y148T, D181K
# light: B1 light with D122E, L124M, K158D, T173Y, K175D
# chain: B1 chain
# notes: hu425 Fv; one Fab arm only; also called Charge pair variant 1
# B3: one-armed anti-EGFR SEED antibody with Charge pair CH3 domain-exchanged Fab, Variant 2 (antibody)
# heavy: B1 heavy with D138E, L140M, Y148T, K174D, K191D
# light: B1 light with D122K, L124M, D165K, T173Y
# chain: B1 chain
# notes: hu425 Fv; one Fab arm only; also called Charge pair variant 2
# B4: one-armed anti-EGFR SEED antibody with Azymetric CH3 domain-exchanged Fab, Variant 2 (antibody)
# heavy: B1 heavy with T132V, D138E, L140M, Y148L, K174L, T176W
# light: B1 light with T116V, L117Y, D122E, L124M, F171A, T173V
# chain: B1 chain
# notes: hu425 Fv; one Fab arm only; also called hu425 CH3-Azymmetric variant 2
# B5: one-armed anti-EGFR SEED antibody with KiH2 CH3 domain-exchanged Fab, Variant 1 (antibody)
# heavy: B1 heavy with Y148W
# light: B1 light with T132S, L134A, T173V
# chain: B1 chain
# notes: hu425 Fv; one Fab arm only; also called KiH2 variant 1
# B6: one-armed anti-EGFR SEED antibody with KiH2 CH3 domain-exchanged Fab, Variant 2 (antibody)
# heavy: B1 heavy with Y148S, L150A, Y189V
# light: B1 light with T132W, T173Y
# chain: B1 chain
# notes: hu425 Fv; one Fab arm only; also called KiH2 variant 2
# B7: one-armed anti-EGFR SEED antibody with Azymetric CH3 domain-exchanged Fab, Variant 1 (antibody)
# heavy: B1 heavy with T132V, L133Y, D138E, L140M, Y148T, F187A, Y189V
# light: B1 light with T116V, D122E, L124M, T132L, K158L, T160W, T173Y
# chain: B1 chain
# notes: hu425 Fv; one Fab arm only; also called hu425 CH3-Azymmetric variant 1
# Target: T1, EGFR (on EGFR-expressing A431 cells) (UniProt P00533 25-1210, limits assumed)
# T1 construct: whole, on cells; A431 is a human cell line; also called EGFR-positive cells; EGFR-overexpressing A431 cells
# Assay: flow cytometry on A431 cells
row,binding result,Binder
1,binds,B1
2,binds,B2
3,binds,B3
4,binds,B4
5,binds,B5
6,binds,B6
7,binds,B7
